From patent publication US6784153B1, “Methods of homing molecules to lung using membrane dipeptidase” (The Burnham Institute, priority 1998, dated 2004)
“Also recorded” adds a separate entry of the source.

How the values were obtained:
[1] = target: T1, 55 kDa lung vascular surface protein (Mus musculus, UniProt P31428); assay: peptide affinity chromatography of in vivo biotinylated lung extract; type: binding; conditions: elution with GFE-1 peptide
T1 construct: from tissue; host or cells: Balb/c mouse lung, in vivo biotinylated, octylglucoside extract
T1 sequence (P31428 17-384): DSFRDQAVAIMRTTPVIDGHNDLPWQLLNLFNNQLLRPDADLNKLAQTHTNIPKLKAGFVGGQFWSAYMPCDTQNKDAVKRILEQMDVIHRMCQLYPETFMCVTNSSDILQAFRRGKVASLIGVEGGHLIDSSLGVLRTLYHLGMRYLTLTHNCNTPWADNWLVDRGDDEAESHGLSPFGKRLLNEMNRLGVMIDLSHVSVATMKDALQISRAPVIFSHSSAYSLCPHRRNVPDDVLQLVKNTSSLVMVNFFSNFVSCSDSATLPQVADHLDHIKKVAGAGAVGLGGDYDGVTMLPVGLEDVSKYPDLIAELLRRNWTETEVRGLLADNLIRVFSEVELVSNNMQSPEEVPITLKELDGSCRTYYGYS
Method: In vivo biotinylation of endothelial cell surface proteins was performed as previously described in De La Fuente et al., Am. J. Physiol. […] Briefly, Balb/c mice were anesthetized with Avertin and perfused slowly through the heart for 10 to 15 minutes with approximately 15 ml of PBS containing 0.5 mg/ml of sulfo-NHS-LC-biotin (Pierce; Rockford, Ill.). Well perfused lungs or control tissues such as brain were then collected and incubated on ice for 20 minutes. The tissues were then homogenized for preparation of extracts as described further below.
For preparation of extracts, mouse or rat lungs were first minced and then homogenized with a Brinkman homogenizer (Brinkman; Wesbury, N.Y.) in a minimal volume (2.5 ml/g of tissue) of cold PBS containing 100 mM N-octyl-β-D-glucopyranoside (Calbiochem; La Jolla, Calif.) with 1 mM phenylmethylsulfonyl fluoride (PMSF), 20 μg/ml aprotinin and 1 μg/ml leupeptin (PBS/octylglucoside). The homogenized tissue was incubated on ice for 2 hours, and then centrifuged at 12,000×g for 30 minutes to remove cell debris. The pooled supernatants were cleared of any debris prior to affinity chromatogaphy.
All steps were performed at 4° C. […] The matrix contained approximately 2 mg/ml of peptide. […] The extract was applied to the column, and the flow-through re-applied over a period of 90 minutes. The column was then washed with 20 volumes of column buffer. […]

murine MDP = target: T2, murine MDP (Mus musculus, UniProt P31428); assay: phage binding to COS-1 cells transfected with MDP
T2 construct: The amplified 1.3 kb murine MDP cDNA was digested with KpnI and XbaI, and inserted into the same sites of the pcDNA3 expression vector; expressed in transfected cells; host or cells: COS-1 cells, pcDNA3 expression vector
T2 sequence (P31428 17-384): T1 sequence (P31428 17-384)
Method: The COS-1 cell line, which is known to have low or no detectable level of MDP activity, has been used extensively to study MDP structure and function (Keynan et al., supra, 1996; Keynan et al., Biochem, J. 326:47-51 (1997)). COS-1 cells were trasfected with murine MDP and used to assay binding to SEQ ID NOS: 1 and 2 as described below.
For transfection into COS-1 cells, a murine MDP expression vector was prepared as follows. Total mouse lung RNA was isolated using Qiagen RNA purification columns (Qiagen; Santa Clarita, Calif.) and used as a template for first strand cDNA synthesis with reverse transcriptase and a mixture of random hexamers and poly-dT oligonucleotides (GIBCO/BRL; Grand Island, N.Y.). Mouse MDP cDNA (Pasqualini et al., J. Cell Biol. 130:1189-1196 (1995)) was amplified from the cDNA pool by PCR using the oligonucleotide pair: […] (SEQ ID NO: 446), which contains a KpnI adaptor, and […] (SEQ ID NO: 447), which contains an XbaI adaptor, using Taq polymerase from GIBCO/BRL. The amplified 1.3 kb murine MDP cDNA was digested with KpnI and XbaI, and inserted into the same sites of the pcDNA3 expression vector (Invitrogen; Carlsbad, Calif.) using DNA restriction enzymes and T4 DNA ligase from New England Biolabs (Beverly, Mass.). Successful cloning of the murine MDP cDNA was confirmed by DNA sequencing. Transfection of the COS-1 cells was performed with the Superfect Reagent from Qiagen as recommended by the manufacturer.
Phage binding to COS-1 cells transfected with MDP was determined as follows. Briefly, 10^7 COS-1 cells were transfected with 10 μg of either the MDP expression vector or the vector alone. After 48 hours, cells were scraped gently from the dish, washed once, and subjected to the phage binding assay or membrane dipeptidase activity assay described above. For the phage binding assay, 5×10^6 cells and 10^10 transducing units (TU) of phage input were used. For measurement of membrane dipeptidase activity, 10^6 cells were lysed in 100 μl of PBS/octylglycoside without protease inhibitors. A 10 μl aliquot of the extract was used to measure MDP activity.

CGFECVRQCPERC [lung homing peptide]
binding of lung surface protein to peptide affinity column [1]: a 55 kDa biotinylated protein was selectively eluted; also recorded: specifically binds to a 55 kDa lung vascular surface protein | phage bound to MDP transfected cells than to mock transfected cells (murine MDP; 5×10^6 COS-1 cells, 10^10 TU phage): 4 fold | inhibition of binding of GFE-1 and GFE-2 phage to MDP-transfected cells (murine MDP; data not shown): completely inhibited
